Tests used:
[1] = Turbidity (OD at 490 nm) / aggregation in aqueous buffer (PBS); assay type: physicochemical; settings: turbidity (OD at 490 nm) >0.05 indicates aggregating
Description: Soluble: Capable of becoming molecularly or ionically dispersed in a solvent to form a homogeneous solution. […] Solubility can be determined by visual inspection, by turbidity measurements or by dynamic light scattering.
It was unknown a priori what composition and magnitude of charge would be needed to fully solubilize polymer arms with high densities of amphiphilic or hydrophobic drug (D) molecules. Therefore, we attached high densities (˜10 mol %) of the small molecule aromatic heterocycle, 2BXy, which is a TLR-7/8a, to ˜40 kDa HPMA-based polymer arms (A) through a reactive monomer (E), wherein the polymer arm (A) comprised HPMA monomers as the majority hydrophilic monomer (B) and optionally included either 10 or 20 mol % charged monomers (C) comprising either negatively or positively charged functional groups.

[2] = Hydrodynamic radius (Rh), dynamic light scattering; assay type: physicochemical; settings: Table 5

| Substance | Turbidity, pH 7.4 ([1]; Table 4, charged monomers, ~10 mol % TLR-7/8a) | Size, Rh (nm) [2] [nm] | Turbidity, pH 7.4 ([1]; Table 5, di-block architecture) |
| --- | --- | --- | --- |
| N3-poly(HPMA-co-Ma-b-Ala-2BXy-co-Ma-b-Ala-COOH)-Pg [Compound 48] | 0.043 | – | – |
| N3-poly(HPMA-co-Ma-b-Ala-2BXy)-Pg [Compound 46] | – | >1000 | Aggregate |
| PAMAM-g-poly[(HPMA-co-Ma-b-Ala-2BXy)-b-HPMA]-Pg [Compound 78] | – | 12.9 | 0.041 |
| N3-poly[(HPMA-co-Ma-b-Ala-2BXy)-b-HPMA]-Pg [Compound 62] | – | 6.6 | 0.039 |

— US20230026627A1, “Compositions and Methods of Manufacturing Star Polymers for Ligand Display and/or Drug Delivery” (Vaccitech North America, Inc., priority 2019, published 2023)
